Measurements taken from IntAct's records for PubMed 25728924.

B1: Leucine-rich repeat transmembrane protein FLRT2 (Mus musculus), Q8BLU0 (parent)
chain: MGLQTTKWPGRGAFILKFWLIISLGLYLQVSKLLACPSVCRCDRNFVYCNERSLTSVPLGIPEGVTVLYLHNNQINNAGFPAELHNVQSVHTVYLYGNQLDEFPMNLPKNVRVLHLQENNIQTISRAALAQLLKLEELHLDDNSISTVGVEDGAFREAISLKLLFLSKNHLSSVPVGLPVDLQELRVDENRIAVISDMAFQNLTSLERLIVDGNLLTNKGIAEGTFSHLTKLKEFSIVRNSLSHPPPDLPGTHLIRLYLQDNQINHIPLTAFANLRKLERLDISNNQLRMLTQGVFDHLSNLKQLTARNNPWFCDCSIKWVTEWLKYIPSSLNVRGFMCQGPEQVRGMAVRELNMNLLSCPTTTPGLPVFTPAPSTVSPTTQSPTLSVPSPSRGSVPPAPTPSKLPTIPDWDGRERVTPPISERIQLSIHFVNDTSIQVSWLSLFTVMAYKLTWVKMGHSLVGGIVQERIVSGEKQHLSLVNLEPRSTYRICLVPLDAFNYRTVEDTICSEATTHASYLNNGSNTASSHEQTTSHSMGSPFLLAGLIGGAVIFVLVVLLSVFCWHMHKKGRYTSQKWKYNRGRRKDDYCEAGTKKDNSILEMTETSFQIVSLNNDQLLKGDFRLQPIYTPNGGINYTDCHIPNNMRYCNSSVPDLEHCHT
B2: Adhesion G protein-coupled receptor L3 (Mus musculus), Q80TS3 (parent)
chain: MWPPQLLILTMLLAPVVHGGKHNERHPALAAPLRHAERSPGGALPPRHLLQQPAAERSTAHRGQGPRGAARGVRGPGAPGAQIAAQAFSRAPIPMAVVRRELSCESYPIELRCPGTDVIMIESANYGRTDDKICDSDPAQMENIRCYLPDAYKIMSQRCNNRTQCAVVAGPDVFPDPCPGTYKYLEVQYECVPYKVEQKVFLCPGLLKGVYQSEHLFESDHQSGAWCKDPLQASDKIYYMPWTPYRTDTLTEYSSKDDFIAGRPTTTYKLPHRVDGTGFVVYDGALFFNKERTRNIVKFDLRTRIKSGEAIIANANYHDTSPYRWGGKSDIDLAVDENGLWVIYATEQNNGKIVISQLNPYTLRIEGTWDTAYDKRSASNAFMICGILYVVKSVYEDDDNEATGNKIDYIYNTDQSKDSLVDVPFPNSYQYIAAVDYNPRDNLLYVWNNYHVVKYSLDFGPLDSRSGPVHHGQVSYISPPIHLDSELERPPVRGISTTGSLGMGSTTTSTTLRTTTWNIGRSTTASLPGRRNRSTSTPSPAVEVLDDVTTHLPSAASQIPAMEESCEAVEAREIMWFKTRQGQVAKQPCPAGTIGVSTYLCLAPDGIWDPQGPDLSNCSSPWVNHITQKLKSGETAANIARELAEQTRNHLNAGDITYSVRAMDQLVGLLDVQLRNLTPGGKDSAARSLNKLQKRERSCRAYVQAMVETVNNLLQPQALNAWRDLTTSDQLRAATMLLDTVEESAFVLADNLLKTDIVRENTDNIQLEVARLSTEGNLEDLKFPENMGHGSTIQLSANTLKQNGRNGEIRVAFVLYNNLGPYLSTENASMKLGTEAMSTNHSVIVNSPVITAAINKEFSNKVYLADPVVFTVKHIKQSEENFNPNCSFWSYSKRTMTGYWSTQGCRLLTTNKTHTTCSCNHLTNFAVLMAHVEVKHSDAVHDLLLDVITWVGILLSLVCLLICIFTFCFFRGLQSDRNTIHKNLCISLFVAELLFLIGINRTDQPIACAVFAALLHFFFLAAFTWMFLEGVQLYIMLVEVFESEHSRRKYFYLVGYGMPALIVAVSAAVDYRSYGTDKVCWLRLDTYFIWSFIGPATLIIMLNVIFLGIALYKMFHHTAILKPESGCLDNINYEDNRPFIKSWVIGAIALLCLLGLTWAFGLMYINESTVIMAYLFTIFNSLQGMFIFIFHCVLQKKVRKEYGKCLRTHCCSGKSTESSIGSGKTSGSRTPGRYSTGSQSRIRRMWNDTVRKQSESSFITGDINSSASLNREGLLNNARDTSVMDTLPLNGNHGNSYSIAGGEYLSNCVQIIDRGYNHNETALEKKILKELTSNYIPSYLNNHERSSEQNRNMMNKLVNNLGSGSEDDAIVLDDAASFNHEESLGLELIHEESDAPLLPPRVYSTDNHQPHHYSRRRFPQDHSESFFPLLTDEHTEDLQSPHRDSLYTSMPALAGVPAADSVTTSTQTEAAAAKGGDAEDVYYKSMPNLGSRNHVHPLHAYYQLGRGSSDGFIVPPNKDGASPEGTSKGPAHLVTSL
partner: B1 chain

Variants of: B1
Details: with agrl3_mouse Adgrl3, Q80TS3

Row | Variant | effect of a mutation on the interaction
1 | R186N;D188T | disrupting interaction strength

Variants of: B2
Details: with flrt2_mouse Flrt2, Q8BLU0

Row | Variant | effect of a mutation on the interaction
2 | R324N;G326T | disrupting interaction strength
3 | T267N;K269T | decreasing interaction strength
4 | R292N;R294T | disrupting interaction strength
5 | P244N;R246T | decreasing interaction strength
